Values quoted from earlier work in PMC10060530.

How the values were obtained:
NaV1.7 (Homo sapiens) = NaV1.7 (Homo sapiens) (UniProt Q15858)
[1] = target: NaV1.2 (Rattus norvegicus) (UniProt P04775)
[2] = target: NaV1.4 (Rattus norvegicus) (UniProt P15390)
Sequence of UniProt P15390 (P15390 whole entry): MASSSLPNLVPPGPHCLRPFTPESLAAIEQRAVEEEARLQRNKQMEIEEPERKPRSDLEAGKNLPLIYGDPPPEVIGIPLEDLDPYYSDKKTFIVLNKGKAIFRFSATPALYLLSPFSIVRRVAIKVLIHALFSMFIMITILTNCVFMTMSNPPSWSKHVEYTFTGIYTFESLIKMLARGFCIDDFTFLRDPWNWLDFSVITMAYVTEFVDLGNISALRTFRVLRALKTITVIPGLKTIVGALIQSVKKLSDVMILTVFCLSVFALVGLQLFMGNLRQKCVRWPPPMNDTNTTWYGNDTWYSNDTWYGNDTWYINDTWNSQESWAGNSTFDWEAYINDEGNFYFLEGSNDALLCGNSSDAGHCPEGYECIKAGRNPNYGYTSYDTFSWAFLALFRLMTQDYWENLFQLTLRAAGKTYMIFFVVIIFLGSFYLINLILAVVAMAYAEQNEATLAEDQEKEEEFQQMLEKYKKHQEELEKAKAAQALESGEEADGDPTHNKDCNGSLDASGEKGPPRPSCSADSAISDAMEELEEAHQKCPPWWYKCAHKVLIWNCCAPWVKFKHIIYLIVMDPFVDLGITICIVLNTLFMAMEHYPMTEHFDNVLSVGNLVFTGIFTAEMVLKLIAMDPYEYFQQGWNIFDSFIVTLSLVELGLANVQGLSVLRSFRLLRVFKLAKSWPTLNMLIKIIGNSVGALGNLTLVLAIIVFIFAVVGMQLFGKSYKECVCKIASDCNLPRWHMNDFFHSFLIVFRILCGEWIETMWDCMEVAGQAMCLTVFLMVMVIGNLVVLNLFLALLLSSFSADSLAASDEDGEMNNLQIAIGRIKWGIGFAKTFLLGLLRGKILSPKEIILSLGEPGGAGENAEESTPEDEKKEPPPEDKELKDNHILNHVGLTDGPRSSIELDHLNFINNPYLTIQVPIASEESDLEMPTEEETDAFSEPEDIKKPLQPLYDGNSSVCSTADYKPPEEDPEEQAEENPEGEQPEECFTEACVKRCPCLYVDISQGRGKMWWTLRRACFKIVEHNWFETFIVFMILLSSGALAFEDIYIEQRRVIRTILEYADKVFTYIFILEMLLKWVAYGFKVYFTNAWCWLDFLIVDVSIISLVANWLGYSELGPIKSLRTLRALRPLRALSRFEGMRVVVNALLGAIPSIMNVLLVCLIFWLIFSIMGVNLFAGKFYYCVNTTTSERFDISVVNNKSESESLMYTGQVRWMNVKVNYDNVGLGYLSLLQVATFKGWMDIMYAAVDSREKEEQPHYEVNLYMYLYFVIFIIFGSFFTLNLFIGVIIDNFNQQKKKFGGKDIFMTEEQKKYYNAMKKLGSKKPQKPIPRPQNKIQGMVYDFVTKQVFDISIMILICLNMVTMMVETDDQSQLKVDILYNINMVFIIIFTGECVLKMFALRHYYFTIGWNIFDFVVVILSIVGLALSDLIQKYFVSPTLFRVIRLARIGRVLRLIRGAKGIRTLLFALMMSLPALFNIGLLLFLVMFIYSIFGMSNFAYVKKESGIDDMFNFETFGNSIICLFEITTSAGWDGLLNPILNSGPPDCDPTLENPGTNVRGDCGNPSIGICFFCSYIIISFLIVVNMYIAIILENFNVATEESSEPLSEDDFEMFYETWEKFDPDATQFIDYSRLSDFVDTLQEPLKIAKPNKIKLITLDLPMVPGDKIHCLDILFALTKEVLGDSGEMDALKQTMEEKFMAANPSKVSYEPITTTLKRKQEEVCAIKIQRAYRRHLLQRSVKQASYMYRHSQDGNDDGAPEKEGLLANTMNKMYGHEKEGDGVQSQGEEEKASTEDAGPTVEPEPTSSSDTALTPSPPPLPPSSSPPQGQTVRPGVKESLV

Sequence of UniProt Q15858 (Q15858 whole entry): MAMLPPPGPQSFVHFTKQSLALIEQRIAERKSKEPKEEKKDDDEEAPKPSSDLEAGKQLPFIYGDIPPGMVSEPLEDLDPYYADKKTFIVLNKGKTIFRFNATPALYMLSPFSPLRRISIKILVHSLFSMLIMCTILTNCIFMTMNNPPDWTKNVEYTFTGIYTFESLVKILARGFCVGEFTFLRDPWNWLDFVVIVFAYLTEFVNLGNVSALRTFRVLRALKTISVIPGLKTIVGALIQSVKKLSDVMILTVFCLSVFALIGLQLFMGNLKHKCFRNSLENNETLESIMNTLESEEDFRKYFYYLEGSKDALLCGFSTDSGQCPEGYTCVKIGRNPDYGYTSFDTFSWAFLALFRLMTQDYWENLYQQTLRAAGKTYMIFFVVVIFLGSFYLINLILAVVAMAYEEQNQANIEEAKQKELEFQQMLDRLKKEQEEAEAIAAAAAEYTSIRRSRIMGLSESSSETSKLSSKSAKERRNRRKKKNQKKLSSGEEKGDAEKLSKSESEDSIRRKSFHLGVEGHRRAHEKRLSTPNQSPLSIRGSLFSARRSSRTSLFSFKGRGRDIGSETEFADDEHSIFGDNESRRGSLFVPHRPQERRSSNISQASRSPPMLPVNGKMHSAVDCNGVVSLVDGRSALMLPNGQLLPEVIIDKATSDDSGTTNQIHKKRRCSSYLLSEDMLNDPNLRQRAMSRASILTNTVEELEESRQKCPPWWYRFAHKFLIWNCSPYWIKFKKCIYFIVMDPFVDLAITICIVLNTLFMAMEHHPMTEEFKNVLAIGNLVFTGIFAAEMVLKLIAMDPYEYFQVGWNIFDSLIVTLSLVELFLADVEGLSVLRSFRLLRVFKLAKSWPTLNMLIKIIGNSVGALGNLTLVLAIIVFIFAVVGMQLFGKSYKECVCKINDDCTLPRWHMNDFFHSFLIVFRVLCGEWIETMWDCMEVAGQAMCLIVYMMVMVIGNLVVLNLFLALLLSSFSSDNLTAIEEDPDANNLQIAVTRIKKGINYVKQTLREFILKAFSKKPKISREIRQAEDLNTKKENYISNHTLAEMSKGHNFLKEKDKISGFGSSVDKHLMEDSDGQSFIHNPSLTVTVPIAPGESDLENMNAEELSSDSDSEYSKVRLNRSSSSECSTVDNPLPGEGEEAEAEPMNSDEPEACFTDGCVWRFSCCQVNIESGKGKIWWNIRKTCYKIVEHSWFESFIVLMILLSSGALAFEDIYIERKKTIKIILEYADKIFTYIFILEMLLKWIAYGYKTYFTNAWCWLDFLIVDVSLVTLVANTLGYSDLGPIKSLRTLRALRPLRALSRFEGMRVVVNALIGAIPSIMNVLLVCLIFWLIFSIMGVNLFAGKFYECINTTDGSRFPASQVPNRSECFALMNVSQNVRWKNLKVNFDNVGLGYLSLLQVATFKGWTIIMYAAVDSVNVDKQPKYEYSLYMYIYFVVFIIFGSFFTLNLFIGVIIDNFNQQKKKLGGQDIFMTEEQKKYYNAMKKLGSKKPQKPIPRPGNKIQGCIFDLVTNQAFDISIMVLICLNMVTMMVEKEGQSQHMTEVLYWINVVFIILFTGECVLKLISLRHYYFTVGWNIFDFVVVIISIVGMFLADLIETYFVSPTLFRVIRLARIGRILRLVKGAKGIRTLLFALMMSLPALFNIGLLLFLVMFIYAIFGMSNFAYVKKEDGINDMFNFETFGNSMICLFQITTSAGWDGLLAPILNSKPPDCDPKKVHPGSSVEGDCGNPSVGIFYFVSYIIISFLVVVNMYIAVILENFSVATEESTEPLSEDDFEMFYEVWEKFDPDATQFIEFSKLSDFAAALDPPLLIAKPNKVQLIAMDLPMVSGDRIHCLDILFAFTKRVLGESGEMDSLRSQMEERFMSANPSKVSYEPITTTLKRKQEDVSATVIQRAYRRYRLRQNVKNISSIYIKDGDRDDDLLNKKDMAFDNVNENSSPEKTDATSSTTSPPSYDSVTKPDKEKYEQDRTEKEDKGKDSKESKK

mu-conotoxin KIIIA (from UniProt P0C195)
Kd (NaV1.7 (Homo sapiens)): 97 nM
Kd [1]: 5 nM
Kd [2]: 37 nM
